Laboratory results reported in paper PMC12753827 (Nature Communications, 2025).

Molecular target: the molecule itself
Test: SEC

B1: CeLGR-ΔC (C. elegans leucine-rich-repeat-containing GPCR truncated after helix 8 at residue 712) (receptor)
chain: QNALSLAQTKHSCMALKAEDGEGCTCKQTKRYGQPECCCMGLIVSQLPTNLTADVGYLYLHNTSISVITPNFFDKFPSIRELEIDNSAHLEHIDGSSLSVLSKLRKLSVVKCPNLREISGKLLVNNTRIQNVILKNNGLATMPSLRMTDAHHVLLDRIDLSGNKIKFISDSKVRNVKARTVVLSENKLIEISGYAFTESQFLKLKLNNNPDLRSLSVDAFKNMAGLQTLDLSHTSIDTLPINGLKKLKTLILNDVPTLKSLPSVLSFTDLETAHFTYPHHCCLFKYVDDVTMNDNGKYQRNAKEIHKRICDKREQQKVARRRKRETSGIDFLDMLLKEWTDNSTYTGPDDADDDELPPFVEIGAEPCQSIGEEVQKYYSNITCYPQPDALNPCENIVGYPFLRIAVWVVCLAAIVGNIIVWALLGIVYEKRMRMHYLYMINMSVADMVTGIYLAVLAIADAKMSDEYYRHAVWWQTGWGCRAAGFLAVFASELGIISMFLIAFEMSYNTRQSFRGRRLSPKVGVLLMIGGWLFAIIMAILPWFDVSSYSESSVCLPLRAATIFDKSYLIFGLSFNFLAFAAMALSYGFIVKMLKENETREEDRALITKMTVLVVTDLICWFPTLFFGFTATIGFPLLSLSSAKFVLVFFFPINAFANPFLYVFFTEVIQHRVRSKTLPVIRR
stoichiometry N: 2
